# Measured values: patent publication US20200362050A1 (BLACK BELT THERAPEUTICS, published 2020)
# T1: human CD38 expressed on human cell lines (Daudi, Ramos, Raji, Jurkat) (human, UniProt P28907 1-300)
# T1 construct: Endogenous CD38 of the cell lines; also called CD38 expressed on cell lines of human origin
# T1 sequence: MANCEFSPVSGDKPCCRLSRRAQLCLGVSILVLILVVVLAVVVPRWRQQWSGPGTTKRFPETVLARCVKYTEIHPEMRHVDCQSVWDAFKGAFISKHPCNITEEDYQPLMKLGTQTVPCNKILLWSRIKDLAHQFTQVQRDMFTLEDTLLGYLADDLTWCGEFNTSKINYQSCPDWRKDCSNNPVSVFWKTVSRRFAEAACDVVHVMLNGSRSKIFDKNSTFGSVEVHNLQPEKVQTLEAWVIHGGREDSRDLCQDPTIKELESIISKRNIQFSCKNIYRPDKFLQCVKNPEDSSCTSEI
# T2: recombinant human CD38 his tagged (extracellular domain) (human, UniProt P28907 43-300)
# T2 construct: Bought from Sino Biological; also called rhCD38; rhCD38-his; not shown: Histidine tag
# T2 sequence: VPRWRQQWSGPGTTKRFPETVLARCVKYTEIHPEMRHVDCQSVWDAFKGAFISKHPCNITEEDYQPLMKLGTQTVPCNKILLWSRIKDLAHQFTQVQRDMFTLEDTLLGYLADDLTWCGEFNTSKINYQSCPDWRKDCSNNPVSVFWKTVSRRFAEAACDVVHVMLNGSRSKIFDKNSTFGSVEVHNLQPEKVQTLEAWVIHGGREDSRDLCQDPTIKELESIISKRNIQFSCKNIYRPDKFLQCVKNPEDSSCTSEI
# Legend:
# [1] = target: recombinant human CD38 his tagged (extracellular domain) (human) (UniProt P28907); test: Forte Bio BLI, IgG on AHQ sensors
# [2] = target: T1, human CD38 expressed on human cell …; test: flow cytometry on Daudi cells, secondary rabbit anti-human Fcg F(ab')2, MFI against log antibody concentration
# Experimental: (§1) Binding of anti-CD38 Antibodies to CD38-expressing cells: The candidate hits are evaluated by binding to lymphoblast like human cell lines, Ramos and Daudi. Binding to CD38 expressing human cell lines (Ramos and Daudi) was examined by staining test articles (anti-CD38 primary antibodies) with 20 μg/ml antibodies followed by semi-log dilution series (7-point) for 30 minutes on ice. This was followed by staining with a secondary antibody (rabbit anti-human Fcg F(ab′)2) concentration of 5 μg/ml for 30 minutes on ice. All samples were stained in triplicates. To minimize cross-linking induced cell death mediated by binding of the secondary antibody, cell lines were examined in staining cohorts of 4 test articles at a time. Live cells were gated using FSC vs SSC parameters by flow cytometry during sample acquisition. Mean fluorescence intensity (MFI) of stained cells were plotted on an XY chart, graphing MFI against the log of the concentration, and the data fit to a non-linear regression curve from which the EC50 is calculated.
# [3] = target: T1, human CD38 expressed on human cell …; test: flow cytometry on Ramos cells, secondary rabbit anti-human Fcg F(ab')2, MFI against log antibody concentration
# Experimental: as §1
# [4] = target: T2, recombinant human CD38 his tagged …; test: SPR, Biacore 2000, antibody captured by anti-human antibody, rhCD38-his as analyte
# Experimental: Anti-human antibody was initially immobilised across all flow cells in analysis buffer (pH 7.4, 10 mM HEPES, 150 mM NaCl, 3 mM EDTA, 0.05% Tween 20) to an RU of between 12,000-14,000 over 10 minutes. The ligand (antibody test articles) was sub sequentially loaded to a capture level of 84RU. […] Dissociation was performed in analysis buffer over 10 minutes. Regeneration steps between sample concentrations were performed in 3M MgCl₂, three times for 0.5 minutes. A flow rate of 25 μl/min was maintained throughout the process. Kinetics data were fit using a global fit on the analysis software provided by Biacore with reference subtraction.
# [5] = target: T2, recombinant human CD38 his tagged …; test: BLI (Octet), avidity format: rhCD38-his loaded on Ni-NTA sensor, antibody in solution
# Experimental: Avidity binding measurements of anti-CD38 Antibodies: Ni-NTA sensors were equilibrated off-line in assay buffer for 30 minutes and then monitored on-line for 60 seconds for baseline establishment. […] Then the antibody was associated at different concentrations (as described in FIGS. 8) for 50 min. Afterwards they were transferred to assay buffer for 30 minutes for off-rate measurement. Kinetics data were fit using a 1:1 binding model in the data analysis software provided by ForteBio.
# [6] = target: T2, recombinant human CD38 his tagged …; test: BLI (Octet / Forte Bio), IgG against monovalent human CD38-HIS (affinity)
molecule,measurement,setting,value
"IB4, reference monoclonal agonistic mouse anti-human CD38 antibody",Kd,[1],9 nM
"aCD38-a-309 human IgG1 (aCD38-a-309-hIgG1) (antibody, V domains shown, They are assigned here because the control is a human IgG1 isotype; not shown: human IgG1 heavy chain constant region, P01857; human kappa light chain constant region, P01834) VH: EVQLVESGGGLVKPGGSLRLSCAASGFTFSSYSMNWVRQAPGKGLEWVSSISSSSNYIYYADSVKGRFTISRDNAKNSLYLQMNSLRAEDTAVYYCAREPIYTSGWPFDIWGQGTMVIVSS VL: EIVLTQSPATLSLSPGERATLSCRASQSVSSYLAWYQQKPGQAPRLLIYDASNRATGIPARFSGSGSGTDFTLTISSLEPEDFAVYYCQQHVNFPWTFGGGTKVEIK",EC50 (read off the curve),[2],~0.2 µg/mL
same,EC50 (read off the curve),[3],~0.4 µg/mL
same,Kd,[4],0.65 nM
"aCD38-a-309-IgG4 (antibody, V domains shown) VH: EVQLVESGGGLVKPGGSLRLSCAASGFTFSSYSMNWVRQAPGKGLEWVSSISSSSNYIYYADSVKGRFTISRDNAKNSLYLQMNSLRAEDTAVYYCAREPIYTSGWPFDIWGQGTMVIVSS VL: EIVLTQSPATLSLSPGERATLSCRASQSVSSYLAWYQQKPGQAPRLLIYDASNRATGIPARFSGSGSGTDFTLTISSLEPEDFAVYYCQQHVNFPWTFGGGTKVEIK",Kd,[5],0.134 nM
same,Kd,[6],32.9 nM
